In article PMC9924070 (Science Translational Medicine, 2021) one finds Kd, koff and kon data, which are given here for four molecules.

Where a chain is given by its changes, count along the chain named.

The target in experiment [1] is T1, mouse IgG1 Fc-fused SARS-CoV-2 RBD (SARS-CoV-2, UniProt P0DTC2). Kind of experiment: BLI. Particulars: both partners purified.
Experiment [2] addresses T1, mouse IgG1 Fc-fused SARS-CoV-2 RBD. In words: BLI. Particulars: both partners purified. The source holds these as a separate data set.

B1: (humVHH)2/WT-Fc (Fc fusion)
chain: EVQLVESGGGLVQPGGSLRLSCAASGRTFSEYAMGWFRQAPGKEREFVATISWSGGSTYYTDSVKGRFTISRDNAKNTVYLQMNSLRPEDTAVYYCAAAGLGTVVSEWDYDYDYWGQGTLVTVSSGGGGSGGGGSGGGGSEVQLVESGGGLVQPGGSLRLSCAASGRTFSEYAMGWFRQAPGKEREFVATISWSGGSTYYTDSVKGRFTISRDNAKNTVYLQMNSLRPEDTAVYYCAAAGLGTVVSEWDYDYDYWGQGTLVTVSS
In experiment [1], B1 showed a Kd below 0.001 nM, a koff below 1e-07 s⁻¹ and a kon of 2.65e+06 M⁻¹ s⁻¹.

B2: (humVHH_S56A)2/LALAPG-Fc/Gen2 (Fc fusion)
chain: B1 chain with E1D, S57A, E141D, S197A
In experiment [1], B2 had a Kd below 0.001 nM, a koff below 1e-07 s⁻¹ and a kon of 2.48e+06 M⁻¹ s⁻¹.

B3: humVHH/WT-Fc (Fc fusion)
chain: EVQLVESGGGLVQPGGSLRLSCAASGRTFSEYAMGWFRQAPGKEREFVATISWSGGSTYYTDSVKGRFTISRDNAKNTVYLQMNSLRPEDTAVYYCAAAGLGTVVSEWDYDYDYWGQGTLVTVSS
notes: also called VHH72_h1-GS-hIgG1hinge-hIgG1Fc; construct 4
Turning to B3, in experiment [2], the Kd was 0.1 nM, the koff was 0.00019 s⁻¹ and the kon amounted to 1.9e+06 M⁻¹ s⁻¹.

B4: humVHH_S56A/LALAPG-Fc/Gen2 (Fc fusion)
chain: B3 chain with E1D, S57A
In experiment [1], B4 returned a Kd of 0.0408 nM, a koff of 6.16e-05 s⁻¹ and a kon of 1.52e+06 M⁻¹ s⁻¹.

Usually Kd stands for the equilibrium constant for the complex coming apart. A high value points to lower affinity. A word on the koff: it is a measure of how fast the partners let go of each other. Higher therefore signals a short-lived complex. Usually kon stands for the rate constant with which the complex forms. A high value points to faster complex formation.
